Target: CRLR/RAMP3 (human)

IC50 (read off the curve): 100 µg/mL
Substance: hADM(22-52) (from UniProt P35318) (peptide)

Source: patent US20260035456A1
